Experimental findings from patent US20250243286A1 (SIXPEAKS BIO, published 2025) are described below.

Like-named read-outs stand apart in the source and are kept apart here.

In assay [1] the target is T1, human ActRIIA (human, UniProt P27037 20-135, limits assumed).
T1 construct: antigen in MSD-SET; also called ACVR2A; ActR2A
The experiment in a line: MSD-SET.

In assay [2] the target is T1, human ActRIIA. Put plainly: MSD-SET. This is another data set of the same source.
Assay [3] deals with T2, human ActRIIB (human, UniProt Q13705 19-137, limits assumed).
T2 construct: antigen in MSD-SET; also called ACVR2B; ActR2B
T2 sequence: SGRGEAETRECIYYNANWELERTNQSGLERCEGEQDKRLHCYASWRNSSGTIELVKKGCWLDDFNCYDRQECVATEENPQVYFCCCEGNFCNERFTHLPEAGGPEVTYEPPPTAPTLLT
The experiment in a line: MSD-SET.

Assay [4] has as its target T1, human ActRIIA. The experiment in a line: MSD-SET. The source holds these as a separate data set.
The target in assay [5] is T2, human ActRIIB. Put plainly: MSD-SET. The source holds these as a separate data set.
Assay [6] deals with T3, ActRIIA and ActRIIB (on TGFB/SMAD SBE Reporter HEK293 cells) (human). Put plainly: cell-based or functional assay.
The target in assay [7] is T3, ActRIIA and ActRIIB (on TGFB/SMAD SBE …). Put plainly: cell-based or functional assay. This is another data set of the same source.
Assay [8] addresses T1, human ActRIIA. The experiment in a line: MSD-SET. The source holds these as a separate data set.
Assay [9] deals with T2, human ActRIIB. The experiment in a line: MSD-SET. This is another data set of the same source.

T1 sequence (P27037 20-135 limits assumed): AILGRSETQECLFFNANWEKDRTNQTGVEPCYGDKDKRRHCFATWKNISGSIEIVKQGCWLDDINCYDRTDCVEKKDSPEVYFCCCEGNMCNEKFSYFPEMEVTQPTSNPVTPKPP

B1: Antibody Biiramooscht (antibody, V domains shown)
VH: QVQLVQSGAEVKKPGASVKVSCKASGYTFTSSYINWVRQAPGQGLEWMGTINPVSGSTSYAQKFQGRVTMTRDTSISTAYMELSRLRSDDTAVYYCARGGWFDYWGQGTLVTVSS
VL: QSALTQPASVSGSPGQSITISCTGTSSDVGSYNYVNWYQQHPGKAPKLMIYGVSKRESGVSNRFSGSKSGNTASLTISGLQAEDEADYYCGTFAGGAYYGVFGGGTKLTVL
notes: full-length IgG
As a reminder, the Kd is the equilibrium constant for the complex coming apart. A low value points to a tighter complex. For B1, in the assay with human ActRIIA [1], the “Fold Difference to bimagrumab” value was 6.4 fold and the Kd stood at 0.028 nM. In the assay with human ActRIIA [2], binding was put at a Kd of 0.028 nM. This molecule also had a Kd with human ActRIIB [3] of 0.005 nM. This molecule came in with a Kd with human ActRIIA [4] of 0.028 nM. Moreover, in the assay with human ActRIIB [5], binding was put at a Kd of 0.005 nM. In assay [6], the IC50, Activin SMAD RGA is 0.161 nM; the IC50, Myostatin SMAD RGA was 0.222 nM; the IC50 [nM] (assay not given) stood at 0.086 nM; the IC50 fold difference to bimagrumab (assay not given) was 6.02 fold. In addition, in assay [6], the IC90, Activin SMAD RGA was determined as 1.58 nM; the IC90, Myostatin SMAD RGA turned out to be 2.78 nM; the IC90 [nM] (assay not given) stood at 1.16 nM; the IC90 fold difference to bimagrumab (assay not given) turned out to be 6.98 fold. In [7], this molecule yielded an IC50, Activin SMAD RGA of 0.21 nM and an IC50, Myostatin SMAD RGA of 0.27 nM.

B2: Antibody Springerle (antibody, V domains shown)
VH: QVQLVQSGAEVKKPGASVKVSCKASGYTFTSSYINWVRQAPGQGLEWMGTINPVSGSTSYAQKFQGRVTMTRDTSISTAYMELSRLRSDDTAVYYCARGGWFDYWGQGTLVTVSS
VL: QSALTQPASVSGSPGQSITISCTGTSSDVGSYNYVNWYQQHPGKAPKLMIYGVSKRESGVSNRFSGSKSGNTASLTISGLQAEDEADYYCGTFAGGSYRGVFGGGTKLTVL
notes: full-length IgG
As to B2, in the assay with human ActRIIA [1], the “Fold Difference to bimagrumab” value stood at 7.3 fold and the equilibrium dissociation constant (Kd) came to 0.027 nM. Also, the Kd with human ActRIIA [2] is 0.027 nM. Moreover, in assay [6], the IC50, Activin SMAD RGA is 0.094 nM; the IC50 [nM] (assay not given) was 0.0946 nM; the IC50 fold difference to bimagrumab (assay not given) turned out to be 5.46 fold; the IC90, Activin SMAD RGA came out at 1.38 nM. In assay [6], this molecule showed an IC90 [nM] (assay not given) of 1.5 nM and an IC90 fold difference to bimagrumab (assay not given) of 5.4 fold.

B3: Soidawürstle, Human IgG1-PALALA-YTE (antibody, V domains shown)
VH: QVQLVQSGAEVRKPGSSVKVSCKASGYTFTSSYINWVRQAPGQGLEWMGTINPVSGSTSYAQKFQGRVTITADTSTSTAYMELSSLRSEDTAVYYCARGGWFDYWGQGTLVTVSS
VL: QSALTQPRSVSGSPGQSVTISCTGTSSDVGSYNRVNWYQQHPGKAPKLMIYGVSKRESGVPDRFSGSKSGNTASLTISGLQAEDEADYYCGTFAGGRYYGVFGGGTKLTVL
notes: human IgG1 with PA-LALA (L234A/L235A/P329A) and YTE (M252Y/S254T/T256E), EU numbering
In the case of B3, the Kd in the assay with human ActRIIA [8] was 0.034 nM; with human ActRIIB [9], 0.005 nM.

B4: Soidawürstle, Mouse IgG2a-PALALA (antibody, V domains shown)
VH: QVQLVQSGAEVRKPGSSVKVSCKASGYTFTSSYINWVRQAPGQGLEWMGTINPVSGSTSYAQKFQGRVTITADTSTSTAYMELSSLRSEDTAVYYCARGGWFDYWGQGTLVTVSS
VL: QSALTQPRSVSGSPGQSVTISCTGTSSDVGSYNRVNWYQQHPGKAPKLMIYGVSKRESGVPDRFSGSKSGNTASLTISGLQAEDEADYYCGTFAGGRYYGVFGGGTKLTVL
notes: mouse IgG2a constant region with PALALA
Consider B4, for which the equilibrium dissociation constant (Kd) with human ActRIIA [8] worked out at 0.027 nM; with human ActRIIB [9] it was 0.003 nM.
